Laboratory results from publication PMC13147308.

Assays:
[1] = molecular target: SauCas9 WED-PI domain construct, His-tagged (Staphylococcus aureus); assay: ITC; AcrIIA13b mutants E31K and E39K with SauCas9 and WED-PI (Fig. S7); buffer not told for this experiment
[2] = molecular target: Staphylococcus aureus Cas9, full length, His-tagged (UniProt J7RUA5); assay: SEC co-migration followed by SDS/PAGE band quantification; settings: fraction eluted around 12 mL in SEC; n = 3; parent: est. 100; read off a plot
[3] = molecular target: Staphylococcus aureus Cas9, full length, His-tagged (Staphylococcus aureus) (UniProt J7RUA5); assay: ITC; PBS pH 7.4, 20 °C; AcrIIA13b (500 μM) injected into the target protein (50 μM) in the cell, 25 injections; single-site model
[4] = molecular target: SauCas9 PI (PAM-interacting) domain, His-tagged (Staphylococcus aureus); assay: as above
[5] = molecular target: Staphylococcus haemolyticus AcrIIA13b, wild type, with C-terminal 6xHis tag (Staphylococcus haemolyticus); assay: SEC-MALS; Superdex 200 Increase 10/300 GL, 20 mM Tris/HCl pH 8.0, 150 mM NaCl, 20 °C, 0.5 mL/min; SEC profiles and MALS of wild type and mutants; monomer and dimer peaks coexist

Substance | percent of parent [2] [%] | further results
AcrIIA13b E39K mutant (natural protein) |  | Kd [1]: 1310 nM
Staphylococcus haemolyticus AcrIIA13b, wild type, with C-terminal 6xHis tag E89W | 84 | 
Staphylococcus haemolyticus AcrIIA13b, wild type, with C-terminal 6xHis tag E21K | 75 | 
Staphylococcus haemolyticus AcrIIA13b, wild type, with C-terminal 6xHis tag E39K | 35 | 
Staphylococcus haemolyticus AcrIIA13b, wild type, with C-terminal 6xHis tag E94W | 87 | 
Staphylococcus haemolyticus AcrIIA13b, wild type, with C-terminal 6xHis tag Q25W | 46 | 
Staphylococcus haemolyticus AcrIIA13b, wild type, with C-terminal 6xHis tag E31K | 13 | 
Staphylococcus haemolyticus AcrIIA13b, wild type, with C-terminal 6xHis tag (natural protein) |  | Kd [3]: 4470 nM; Kd [4]: 970 nM; stoichiometry N [5]: 2
Staphylococcus haemolyticus AcrIIA13b, wild type, with C-terminal 6xHis tag Q87W | 75 | 
